We go through two molecules from publication PMC4837482, “The complex binding mode of the peptide hormone H2 relaxin to its receptor RXFP1” (Nature Communications, 2016).

Where no end group is shown, it is not given here. The star is where a group is joined. DTPA = O=C(O)CN(CCN(CC(=O)O)CC(=O)O)CCN(CC(=O)O)CC(=O)*

The target of assay [1] is T1, RXFP1 F50A (Homo sapiens, UniProt Q9HBX9, F72A).
T1 construct: expressed in transfected cells; host or cells: HEK293T
T1 sequence (Q9HBX9 23-757 F72A limits assumed): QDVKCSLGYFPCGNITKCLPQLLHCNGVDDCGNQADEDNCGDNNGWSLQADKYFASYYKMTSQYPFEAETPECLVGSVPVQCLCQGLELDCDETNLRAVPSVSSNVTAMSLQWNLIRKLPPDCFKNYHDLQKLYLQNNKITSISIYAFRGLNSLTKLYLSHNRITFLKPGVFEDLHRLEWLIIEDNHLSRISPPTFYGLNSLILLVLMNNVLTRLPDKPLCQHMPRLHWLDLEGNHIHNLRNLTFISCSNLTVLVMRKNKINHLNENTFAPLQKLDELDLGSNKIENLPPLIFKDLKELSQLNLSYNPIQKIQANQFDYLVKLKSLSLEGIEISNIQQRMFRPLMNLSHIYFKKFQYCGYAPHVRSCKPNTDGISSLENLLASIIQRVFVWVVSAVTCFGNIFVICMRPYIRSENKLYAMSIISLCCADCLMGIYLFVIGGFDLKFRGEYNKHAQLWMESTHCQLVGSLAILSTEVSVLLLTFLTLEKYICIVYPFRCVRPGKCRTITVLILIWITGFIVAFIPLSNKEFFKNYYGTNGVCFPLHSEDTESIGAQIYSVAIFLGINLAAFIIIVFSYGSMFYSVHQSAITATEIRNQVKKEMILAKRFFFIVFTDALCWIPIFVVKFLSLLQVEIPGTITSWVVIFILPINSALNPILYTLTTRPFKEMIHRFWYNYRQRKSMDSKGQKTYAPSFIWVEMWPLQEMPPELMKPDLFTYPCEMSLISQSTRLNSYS
The assay can be described thus: Eu-H2 relaxin saturation binding assay, transfected HEK293T cells. The following applies: F50A RXFP1 versus wild-type RXFP1.

Assay [2] addresses RXFP1 A55L, full length (human). The assay can be described thus: europium-labelled ligand saturation binding on cells (time-resolved fluorescence); HEK293T cells transiently transfected with receptor, 96-well plates; increasing Eu-H2 relaxin (maximum 15 nM) with or without 1 μM unlabelled H2 relaxin, 1 h, room temperature; 20 mM HEPES pH 7.5, […] CaCl2, 50 mM NaCl, 0.01% NaN3, 1% BSA; one-site fit.

In assay [3] the target is RXFP1 A55S, full length (human). The assay is described as above.
Assay [4] has as its target RXFP1 C40A^ins, full length (human). Described as above.
The target in assay [5] is RXFP1 F50A, full length (human). The description is as above.
Assay [6] deals with RXFP1 F50A^ins, full length (human). Described as above.
The target of assay [7] is RXFP1 N43A, full length (human). Described as above.
The target of assay [8] is RXFP1 Q49A/F50A, full length (human). Described as above.
The target in assay [9] is RXFP1 W46A, full length (human). Described as above.
For assay [10], the target named is RXFP1 Y57A, full length (human). Described as above.

For “H2 relaxin: two-chain 6-kDa peptide hormone structurally related to insulin; recombinant human gene-2 H2 relaxin provided by Corthera”, the “loss in H2 relaxin binding” value in assay [1] is reported as “tenfold”.

B1: Europium-labelled H2 relaxin (ligand, human)
chain 1: {DTPA}-QLYSALANKCCHVGCTKRSLARFC
chain 2: DSWMEEVIKLCGRELVRAQIAICGMSTWS
modifications: not fully specified; ends and bridges not checked; also: DTPA cage loaded with Eu^3+
notes: A chain of human gene-2 (H2) relaxin; numbers count on: the A chain; B chain of human gene-2 (H2) relaxin; numbers count on: the B chain; also called Eu-H2 relaxin; Eu-H2
In the case of B1, the Kd stood at 1.54 nM in assay [2]; 0.8 nM in assay [3]; 3.92 nM in assay [4]; 6.48 nM in [5]; 16.7 nM in assay [6]; 2.55 nM in assay [7]. For the same molecule, the dissociation constant (Kd) was 6.74 nM in assay [8], 12.3 nM in assay [9] and 0.81 nM in assay [10].

The term Kd denotes a measure of binding affinity in units of concentration. A high value points to weaker binding.
